Laboratory results: patent US20210253678A1 (CUREAB, published 2021)

Experiments:
[1] = target: T1, peptide AA 36-55 of GP73 (rGP73), SSRSVDLQTRIMELEGRVRR (human, biotinylated in the ELISAs (position not given)); assay: peptide ELISA on coated biotinylated rGP73 AA36-55, anti mouse HRP secondary
T1 construct: also called GP73 peptide; peptide rGP73 (GP73 AA 36 to 55)
T1 peptide: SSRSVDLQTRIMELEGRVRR
Protocol: (§1) ELISA was carried out in 96 well plates coated overnight with the biotinylated peptide gp73 AA 36-55 or an unrelated peptide and blocked with 2% gelatine. Antibodies 8A10, G2-2opti (IgG2a) or isotype control antibody (IgG2a) were applied, incubated for 1.5 hours and then washed away. A secondary horse radish peroxidase labeled anti mouse antibody was added for 1 hour and after extensive washing a chromogenic substrate (TMB Amersham) was applied to detect peroxidase.

[2] = target: T2, sGP73-10×His, encompassing GP73 AA56 to 401 (human, UniProt Q8NBJ4 56-401); assay: ELISA on coated sGP73-His, anti mouse HRP secondary
T2 construct: also called sGP73-His; sGP73-HIS
T2 sequence: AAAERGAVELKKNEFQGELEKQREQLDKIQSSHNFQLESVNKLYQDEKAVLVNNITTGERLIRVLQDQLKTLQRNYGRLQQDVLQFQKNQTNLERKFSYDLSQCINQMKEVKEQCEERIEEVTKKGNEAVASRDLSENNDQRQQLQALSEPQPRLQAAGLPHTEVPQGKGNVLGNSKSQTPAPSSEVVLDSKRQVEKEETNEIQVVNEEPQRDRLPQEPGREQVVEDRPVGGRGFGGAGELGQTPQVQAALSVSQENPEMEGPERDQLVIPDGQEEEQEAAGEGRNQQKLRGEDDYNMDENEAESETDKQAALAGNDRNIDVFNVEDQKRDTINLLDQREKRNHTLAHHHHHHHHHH
Protocol: as §1, with “sGP73” for “the biotinylated peptide gp73 AA 36-55”, “GP73 AVRR” for “an unrelated peptide”, “antibody” for “antibody (IgG2a)”, “and” for “and then”, “Horse” for “horse”

[3] = target: T3, GP73-10×His AVRR, encompassing GP73 AA36 to 401 with a R52A mutation (human, UniProt Q8NBJ4 36-401); assay: ELISA on coated GP73-His AVRR, anti mouse HRP secondary
T3 construct: also called GP73 AVRR; GP73-His AVRR
T3 sequence: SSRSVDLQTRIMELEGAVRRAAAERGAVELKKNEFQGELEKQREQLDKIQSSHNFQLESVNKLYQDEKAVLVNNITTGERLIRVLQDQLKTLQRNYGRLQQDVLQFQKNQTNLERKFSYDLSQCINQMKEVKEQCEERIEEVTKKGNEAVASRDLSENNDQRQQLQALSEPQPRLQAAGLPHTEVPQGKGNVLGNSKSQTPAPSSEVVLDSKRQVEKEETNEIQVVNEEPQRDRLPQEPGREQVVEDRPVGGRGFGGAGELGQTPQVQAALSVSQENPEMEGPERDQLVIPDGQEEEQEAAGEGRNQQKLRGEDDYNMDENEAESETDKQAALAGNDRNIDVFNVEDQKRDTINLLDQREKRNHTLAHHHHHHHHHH
Protocol: as §1, with “sGP73” for “the biotinylated peptide gp73 AA 36-55”, “GP73 AVRR” for “an unrelated peptide”, “antibody” for “antibody (IgG2a)”, “and” for “and then”, “Horse” for “horse”

[4] = target: T4, human GP73 (GOLM1, GOLPH2) in Alexander (PLC/PRF/5) cells (human, UniProt Q8NBJ4 1-401); assay: immunofluorescence on fixed, saponin treated Alexander cells
T4 construct: Endogenous protein of the cell line; cells were fixed with paraformaldehyde and treated with saponin
T4 sequence: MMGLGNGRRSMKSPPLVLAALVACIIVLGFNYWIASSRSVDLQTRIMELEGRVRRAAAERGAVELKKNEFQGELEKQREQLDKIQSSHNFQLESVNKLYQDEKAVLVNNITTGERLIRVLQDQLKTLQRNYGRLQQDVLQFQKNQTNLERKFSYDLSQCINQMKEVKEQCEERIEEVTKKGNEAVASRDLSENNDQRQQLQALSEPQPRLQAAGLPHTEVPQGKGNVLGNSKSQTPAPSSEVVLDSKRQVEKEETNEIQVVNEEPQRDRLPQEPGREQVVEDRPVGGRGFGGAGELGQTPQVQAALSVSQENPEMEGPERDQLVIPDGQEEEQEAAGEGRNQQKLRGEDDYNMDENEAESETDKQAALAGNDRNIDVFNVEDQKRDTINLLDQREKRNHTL
Protocol: Alexander cells were grown on 4 chamber slides, fixed with 4% paraformaldehyde, treated with 0.2% Saponin and blocked with 10% bovine serum albumin. Cells were incubated for one hour with goat anti-GP73 (santa cruz sc-48010) and mG2-2 and washed. Bound antibodies were stained with anti goat Alexa Fluor 488 (abeam ab150129) and anti mouse Alexa Fluor 647 (abeam ab150115). Nuclei were treated with DAPI.

[5] = target: T5, GP73 (endogenous human GP73 on HEK 293, HuH7, JHH4 and DU145 cells and in human tissue sections); assay: immunohistochemistry, paraffin section of hepatitis liver, anti-mouse secondary
T5 construct: One entry for all cell lines and tissues; also called GOLM1; GOLPH2
T5 antigen: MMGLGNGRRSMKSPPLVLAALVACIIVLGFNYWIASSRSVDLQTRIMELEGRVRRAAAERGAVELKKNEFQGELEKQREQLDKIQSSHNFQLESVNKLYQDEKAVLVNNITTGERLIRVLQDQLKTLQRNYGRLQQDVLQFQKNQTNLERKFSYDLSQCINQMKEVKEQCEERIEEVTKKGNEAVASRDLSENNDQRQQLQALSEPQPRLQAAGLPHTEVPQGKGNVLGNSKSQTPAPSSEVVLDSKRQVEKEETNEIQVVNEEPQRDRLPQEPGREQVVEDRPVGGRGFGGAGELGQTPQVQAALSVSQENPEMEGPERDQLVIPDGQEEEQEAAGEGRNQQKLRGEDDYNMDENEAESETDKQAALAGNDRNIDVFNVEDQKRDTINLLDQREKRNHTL
Source text: FIG. 5 Immunohistochemical staining of tissues with the anti-rGOLPH antibody G2-2 and controls. Paraffin embedded tissues of A normal liver B hepatitis liver C and D hepatocellular carcinoma (HCC) were stained with murine G2-2 (mG2-2) (A,B,C) or anti-GP73 antibody M06A (Sigma) followed by secondary staining with an anti-mouse antibody and examined under a microscope by 40× magnification as described in Example 3.
Paraffin embedded tissues of normal liver, hepatitis liver, hepatocellular carcinoma (HCC), endometrium carcinoma, ovarian carcinoma, melanoma, small cell lung cancer and gastric cancer were stained with murine G2-2 (mG2-2) or mouse anti GOLPH (M06A Sigma) followed by secondary staining with an anti-mouse IgG. Nuclei were stained with hematoxylin (blue), cytoplasma was stained with hemalum-eosin.

[6] = target: T1, peptide AA 36-55 of GP73 (rGP73), …; assay: SPR (Biacore), fit for 1:1 binding, mean of measurements 1 + 2, GP73 peptide
[7] = target: T5, GP73 (endogenous human GP73 on HEK 293, …); assay: flow cytometry of antibody left on the surface of HuH7 cells (panel title) after loading at 4°C; detection with APC anti-human Fab
Protocol: Cells were incubated with 10 ug/ml of G2-2 or G2-1 for one hour at 4° C. in PBS. Unbound G2-2 was washed away and cells were transferred to tissue culture medium with 10% FCS and then either warmed to 37° C. to allow internalization or maintained at 4° C. The internalization process was stopped after 15, 30, 60 or 120 minutes by transferring the cells into ice-cold buffer with 0.1% […]. Cells were stained with APC-conjugated goat anti-human Fab (Jackson Immuno) and analyzed by FACS. The residual levels of cell surface G2-2 was calculated based on the mean fluorescence intensity (MFI).

[8] = target: T5, GP73 (endogenous human GP73 on HEK 293, …); assay: flow cytometry, surface staining of HEK 293 cells, axis anti-mouse APC
Protocol: Detection of surface staining of cells is depicted as continuous line, only secondary antibody control detection is depicted as dashed line as described in Example 4.
Different human and murine cell lines e.g. HuH7, JHH4, HEK293, HEK293-GP73-myc and Ramos were tested by Flow cytometry analysis for expression of GP73 on their cell surface and binding of G2-2, G2-1 and G2-4. […]

B1: G2-2opti (IgG2a) (antibody, V domains shown)
VH: QVQLVQSGGGVVQPGRSLRLSCAASGFTFSSYGMHWVRQAPGKGLEWVAVISYDGSNKYYADSVKGRFTISRDNSKNTLYLQMNSLRAEDTAVYYCAREGSAGMDVWGQGTTVTVSS
VL: QAVLTQPSSLSASPGASASLTCTLRSDISVGFHRIYWYQQKPGSPPQYLLRYKSDSDKQQGSGVPSRFSGSKDASANAGILLISGLQSDDEADYYCVIWHTSGVVFGGGTKLTVL
notes: 'a chimeric human/murine version with a murine CH2 and CH2'
[1]
  binding result: binds
[2]
  binding result: no binding (tested: 5.0 ug/ml)
[3]
  binding result: binds

B2: mG2-2 (G2-2 variable regions with murine IgG2a heavy chain and human Igk light chain constant regions) (antibody)
heavy: EVQLLQSGGGVVQPGRSLRLSCAASGFTFSSYGMSWVRQAPGKGLEWVAVISYDGSNKYYADSVKGRFTISRDNSKNTLYLQMNSLRAEDTAVYYCAREGSAGMDVWGQGTTVTVSSASTTAPSVYPLAPVCGDTTGSSVTLGCLVKGYFPEPVTLTWNSGSLSSGVHTFPAVLQSDLYTLSSSVTVTSSTWPSQSITCNVAHPASSTKVDKKIEPRGPTIKPCPPCKCPAPNLLGGPSVFIFPPKIKDVLMISLSPIVTCVVVDVSEDDPDVQISWFVNNVEVHTAQTQTHREDYNSTLRVVSALPIQHQDWMSGKEFKCKVNNKDLPAPIERTISKPKGSVRAPQVYVLPPPEEEMTKKQVTLTCMVTDFMPEDIYVEWTNNGKTELNYKNTEPVLDSDGSYFMYSKLRVEKKNWVERNSYSCSVVHEGLHNHHTTKSFSRTPGK
light: DIQMTQPSSLSASPGASASLTCTLRSDISVGFHRIYWYQQKPGSPPQYLLRYKSDSDKQQGSGVPSRFSGSKDASANAGILLISGLQSDDEADYYCVIWHTSGVVFGGGTKVEIKRTVAAPSVFIFPPSDEQLKSGTASVVCLLNNFYPREAKVQWKVDNALQSGNSQESVTEQDSKDSTYSLSSTLTLSKADYEKHKVYACEVTHQGLSSPVTKSFNRGEC
notes: also called murine G2-2
[4]
  binding result: binds
[5]
  binding result: binds

B3: G2-2 (human IgG1 heavy chain and human Igk light chain constant regions) (antibody)
heavy: not shown
light: DIQMTQPSSLSASPGASASLTCTLRSDISVGFHRIYWYQQKPGSPPQYLLRYKSDSDKQQGSGVPSRFSGSKDASANAGILLISGLQSDDEADYYCVIWHTSGVVFGGGTKVEIKRTVAAPSVFIFPPSDEQLKSGTASVVCLLNNFYPREAKVQWKVDNALQSGNSQESVTEQDSKDSTYSLSSTLTLSKADYEKHKVYACEVTHQGLSSPVTKSFNRGEC
notes: scFv clone from a human scFv library, cloned as human IgG1/kappa; also called G2-2-HRP (horse radish peroxidase labeled); anti-rGOLPH antibody G2-2
[6]
  Kd: 4.29 nM
  koff: 0.00111 s⁻¹
  kon: 260000 M⁻¹ s⁻¹
[7]
  binding result: binds

B4: G2-4 (antibody, V domains shown)
VH: QVQLEESGGGLVQPGGSLRLSCATSGFTFTDYYMSWVRQPPGKALEWLGFIRNKAKGYTTEYSASVKGRFTISRDNSQSILYLQMNTLRAEDSATYYCARDPSTNYWYFDVWGAGTTVTVSS
VL: DIVLTQSPSSLAVSAGEKVTMTCKSSQSLLNSRTRKNYLAWYQQKPGQSPKLLIYWASTRESGVPDRFTGSGSGTDFTLTISSVQAEDLAVYYCKQSYNLYTFGGGTKLEIKR
[8]
  binding result: binds

B5: G2-1 (human IgG1 heavy chain and human Igk light chain constant regions) (antibody, V domains shown)
VH: EVQLLESGGGVVQPGRSLRLSCAASGFTFSSYAMSWVRQAPGKGLEWVSVISYDGSNKAYADSVKGRFTISRDNSKNTLYLQMNSLRAEDTAVYYCARGRSYYDSSGYLFDYWGQGTLVTVSS
VL: DIQMTQPHSVSESVGKTVIITCTGGGGSIDTNYVQWYQQRPGSAPVTLIYEDDQRPFGVPDRFSAAIDTSSSSASLTISGLTAEDEATYYCQSSHSTAVVFGGGTKVEIKR
notes: scFv clone from a human scFv library, cloned as human IgG1/kappa; also called G2-1-HRP (horse radish peroxidase labeled)
[6]
  Kd: 3.02 nM
  koff: 0.00198 s⁻¹
  kon: 635000 M⁻¹ s⁻¹
